This test addresses GluA2 AMPAR (expressed in HEK293T) (UniProt P23819). The experiment in a line: SPR.
UniProt P23819, sequence (P23819 25-883): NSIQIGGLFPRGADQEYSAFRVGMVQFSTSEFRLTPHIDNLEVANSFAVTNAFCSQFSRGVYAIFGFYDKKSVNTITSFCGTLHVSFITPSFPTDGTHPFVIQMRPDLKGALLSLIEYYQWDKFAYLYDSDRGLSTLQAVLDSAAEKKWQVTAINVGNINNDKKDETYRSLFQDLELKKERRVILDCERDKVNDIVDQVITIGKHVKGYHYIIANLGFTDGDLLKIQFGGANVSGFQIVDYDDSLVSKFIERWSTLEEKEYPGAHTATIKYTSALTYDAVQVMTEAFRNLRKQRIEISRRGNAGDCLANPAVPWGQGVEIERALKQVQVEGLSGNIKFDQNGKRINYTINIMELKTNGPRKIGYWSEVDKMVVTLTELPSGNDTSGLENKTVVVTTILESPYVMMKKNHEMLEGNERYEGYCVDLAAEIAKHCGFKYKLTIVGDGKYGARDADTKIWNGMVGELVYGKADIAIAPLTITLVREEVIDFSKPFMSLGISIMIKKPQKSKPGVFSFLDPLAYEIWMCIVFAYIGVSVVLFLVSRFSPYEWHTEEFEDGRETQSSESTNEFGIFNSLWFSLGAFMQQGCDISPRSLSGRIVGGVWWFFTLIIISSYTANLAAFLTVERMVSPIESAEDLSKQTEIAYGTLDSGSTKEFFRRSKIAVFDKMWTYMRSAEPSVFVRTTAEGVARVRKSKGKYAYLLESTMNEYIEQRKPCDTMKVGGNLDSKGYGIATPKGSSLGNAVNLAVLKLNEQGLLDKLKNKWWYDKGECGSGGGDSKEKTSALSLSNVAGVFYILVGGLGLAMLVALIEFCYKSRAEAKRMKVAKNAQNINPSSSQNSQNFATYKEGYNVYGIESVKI

As to “Noelin1-3 (untagged, expressed in HEK293T) (natural protein)”, the Kd (usually the constant that tells how readily two partners part at equilibrium) was 1 nM and the off-rate constant (koff) – broadly, a measure of how fast the partners let go of each other – was 0.002 s⁻¹.

Source of the values: PMC6088136.
